Laboratory results taken from publication PMC7367873, “Dissecting the sequence determinants for dephosphorylation by the catalytic subunits of phosphatases PP1 and PP2A” (Nature Communications, 2020).

B1: LMNA (protein, UniProt P02545 1-661, looked up)
Prelamin-A/C: METPSQRRATRSGAQASSTPLSPTRITRLQEKEDLQELNDRLAVYIDRVRSLETENAGLRLRITESEEVVSREVSGIKAAYEAELGDARKTLDSVAKERARLQLELSKVREEFKELKARNTKKEGDLIAAQARLKDLEALLNSKEAALSTALSEKRTLEGELHDLRGQVAKLEAALGEAKKQLQDEMLRRVDAENRLQTMKEELDFQKNIYSEELRETKRRHETRLVEIDNGKQREFESRLADALQELRAQHEDQVEQYKKELEKTYSAKLDNARQSAERNSNLVGAAHEELQQSRIRIDSLSAQLSQLQKQLAAKEAKLRDLEDSLARERDTSRRLLAEKEREMAEMRARMQQQLDEYQELLDIKLALDMEIHAYRKLLEGEEERLRLSPSPTSQRSRGRASSHSSQTQGGGSVTKKRKLESTESRSSFSQHARTSGRVAVEEVDEEGKFVRLRNKSNEDQSMGNWQIKRQNGDDPLLTYRFPPKFTLKAGQVVTIWAAGAGATHSPPTDLVWKAQNTWGCGNSLRTALINSTGEEVAMRKLVRSVTVVEDDEDEDGDDLLHHHHGSHCSSSGDPAEYNLRSRTVLCGTCGQPADKASASGSGAQVGGPISSGSSASSVTVTRSYRSVGGSGGGSFGDNLVTRSYLLGNSSPRTQSPQNC
B2: PHGDH (protein, UniProt O43175 2-533, looked up)
D-3-phosphoglycerate …: AFANLRKVLISDSLDPCCRKILQDGGLQVVEKQNLSKEELIAELQDCEGLIVRSATKVTADVINAAEKLQVVGRAGTGVDNVDLEAATRKGILVMNTPNGNSLSAAELTCGMIMCLARQIPQATASMKDGKWERKKFMGTELNGKTLGILGLGRIGREVATRMQSFGMKTIGYDPIISPEVSASFGVQQLPLEEIWPLCDFITVHTPLLPSTTGLLNDNTFAQCKKGVRVVNCARGGIVDEGALLRALQSGQCAGAALDVFTEEPPRDRALVDHENVISCPHLGASTKEAQSRCGEEIAVQFVDMVKGKSLTGVVNAQALTSAFSPHTKPWIGLAEALGTLMRAWAGSPKGTIQVITQGTSLKNAGNCLSPAVIVGLLKEASKQADVNLVNAKLLVKEAGLNVTTSHSPAAPGEQGFGECLLAVALAGAPYQAVGLVQGTTPVLQGLNGAVFRPEVPLRRDLPLLLFRTQTSDPAMLPTMIGLLAEAGVRLLSYQTSLVSDGETWHVMGISSLLPSLEAWKQHVTEAFQFHF
B3: RRP15 (protein, UniProt Q9Y3B9 2-282, looked up)
RRP15-like protein: AAAAPDSRVSEEENLKKTPKKKMKMVTGAVASVLEDEATDTSDSEGSCGSEKDHFYSDDDAIEADSEGDAEPCDKENENDGESSVGTNMGWADAMAKVLNKKTPESKPTILVKNKKLEKEKEKLKQERLEKIKQRDKRLEWEMMCRVKPDVVQDKETERNLQRIATRGVVQLFNAVQKHQKNVDEKVKEAGSSMRKRAKLISTVSKKDFISVLRGMDGSTNETASSRKKPKAKQTEVKSEEGPGWTILRDDFMMGASMKDWDKESDGPDDSRPESASDSDT
B4: IGHMBP2 (protein, UniProt P38935 2-993, looked up)
DNA-binding protein SMUBP-2: ASAAVESFVTKQLDLLELERDAEVEERRSWQENISLKELQSRGVCLLKLQVSSQRTGLYGRLLVTFEPRRYGSAAALPSNSFTSGDIVGLYDAANEGSQLATGILTRVTQKSVTVAFDESHDFQLSLDRENSYRLLKLANDVTYRRLKKALIALKKYHSGPASSLIEVLFGRSAPSPASEIHPLTFFNTCLDTSQKEAVLFALSQKELAIIHGPPGTGKTTTVVEIILQAVKQGLKVLCCAPSNIAVDNLVERLALCKQRILRLGHPARLLESIQQHSLDAVLARSDSAQIVADIRKDIDQVFVKNKKTQDKREKSNFRNEIKLLRKELKEREEAAMLESLTSANVVLATNTGASADGPLKLLPESYFDVVVIDECAQALEASCWIPLLKARKCILAGDHKQLPPTTVSHKAALAGLSLSLMERLAEEYGARVVRTLTVQYRMHQAIMRWASDTMYLGQLTAHSSVARHLLRDLPGVAATEETGVPLLLVDTAGCGLFELEEEDEQSKGNPGEVRLVSLHIQALVDAGVPARDIAVVSPYNLQVDLLRQSLVHRHPELEIKSVDGFQGREKEAVILSFVRSNRKGEVGFLAEDRRINVAVTRARRHVAVICDSRTVNNHAFLKTLVEYFTQHGEVRTAFEYLDDIVPENYSHENSQGSSHAATKPQGPATSTRTGSQRQEGGQEAAAPARQGRKKPAGKSLASEAPSQPSLNGGSPEGVESQDGVDHFRAMIVEFMASKKMQLEFPPSLNSHDRLRVHQIAEEHGLRHDSSGEGKRRFITVSKRAPRPRAALGPPAGTGGPAPLQPVPPTPAQTEQPPREQRGPDQPDLRTLHLERLQRVRSAQGQPASKEQQASGQQKLPEKKKKKAKGHPATDLPTEEDFEALVSAAVKADNTCGFAKCTAGVTTLGQFCQLCSRRYCLSHHLPEIHGCGERARAHARQRISREGVLYAGSGTKNGSLDPAKRAQLQRRLDKKLSELSNQRTSRRKERGT
B5: SFPQ (protein, UniProt P23246 1-707, looked up)
Splicing factor, proline- and …: MSRDRFRSRGGGGGGFHRRGGGGGRGGLHDFRSPPPGMGLNQNRGPMGPGPGQSGPKPPIPPPPPHQQQQQPPPQQPPPQQPPPHQPPPHPQPHQQQQPPPPPQDSSKPVVAQGPGPAPGVGSAPPASSSAPPATPPTSGAPPGSGPGPTPTPPPAVTSAPPGAPPPTPPSSGVPTTPPQAGGPPPPPAAVPGPGPGPKQGPGPGGPKGGKMPGGPKPGGGPGLSTPGGHPKPPHRGGGEPRGGRQHHPPYHQQHHQGPPPGGPGGRSEEKISDSEGFKANLSLLRRPGEKTYTQRCRLFVGNLPADITEDEFKRLFAKYGEPGEVFINKGKGFGFIKLESRALAEIAKAELDDTPMRGRQLRVRFATHAAALSVRNLSPYVSNELLEEAFSQFGPIERAVVIVDDRGRSTGKGIVEFASKPAARKAFERCSEGVFLLTTTPRPVIVEPLEQLDDEDGLPEKLAQKNPMYQKERETPPRFAQHGTFEYEYSQRWKSLDEMEKQQREQVEKNMKDAKDKLESEMEDAYHEHQANLLRQDLMRRQEELRRMEELHNQEMQKRKEMQLRQEEERRRREEEMMIRQREMEEQMRRQREESYSRMGYMDPRERDMRMGGGGAMNMGDPYGSGGQKFPPLGGGGGIGYEANPGVPPATMSGSMMGSDMRTERFGQGGAGPVGGQGPRGMGPGTPAGYGRGREEYEGPNKKPRF
B6: LAMB3 (protein, UniProt Q13751 18-1172, looked up)
Laminin subunit beta-3: QQACSRGACYPPVGDLLVGRTRFLRASSTCGLTKPETYCTQYGEWQMKCCKCDSRQPHNYYSHRVENVASSSGPMRWWQSQNDVNPVSLQLDLDRRFQLQEVMMEFQGPMPAGMLIERSSDFGKTWRVYQYLAADCTSTFPRVRQGRPQSWQDVRCQSLPQRPNARLNGGKVQLNLMDLVSGIPATQSQKIQEVGEITNLRVNFTRLAPVPQRGYHPPSAYYAVSQLRLQGSCFCHGHADRCAPKPGASAGPSTAVQVHDVCVCQHNTAGPNCERCAPFYNNRPWRPAEGQDAHECQRCDCNGHSETCHFDPAVFAASQGAYGGVCDNCRDHTEGKNCERCQLHYFRNRRPGASIQETCISCECDPDGAVPGAPCDPVTGQCVCKEHVQGERCDLCKPGFTGLTYANPQGCHRCDCNILGSRRDMPCDEESGRCLCLPNVVGPKCDQCAPYHWKLASGQGCEPCACDPHNSLSPQCNQFTGQCPCREGFGGLMCSAAAIRQCPDRTYGDVATGCRACDCDFRGTEGPGCDKASGRCLCRPGLTGPRCDQCQRGYCNRYPVCVACHPCFQTYDADLREQALRFGRLRNATASLWSGPGLEDRGLASRILDAKSKIEQIRAVLSSPAVTEQEVAQVASAILSLRRTLQGLQLDLPLEEETLSLPRDLESLDRSFNGLLTMYQRKREQFEKISSADPSGAFRMLSTAYEQSAQAAQQVSDSSRLLDQLRDSRREAERLVRQAGGGGGTGSPKLVALRLEMSSLPDLTPTFNKLCGNSRQMACTPISCPGELCPQDNGTACGSRCRGVLPRAGGAFLMAGQVAEQLRGFNAQLQRTRQMIRAAEESASQIQSSAQRLETQVSASRSQMEEDVRRTRLLIQQVRDFLTDPDTDAATIQEVSEAVLALWLPTDSATVLQKMNEIQAIAARLPNVDLVLSQTKQDIARARRLQAEAEEARSRAHAVEGQVEDVVGNLRQGTVALQEAQDTMQGTSRSLRLIQDRVAEVQQVLRPAEKLVTSMTKQLGDFWTRMEELRHQARQQGAEAVQAQQLAEGASEQALSAQEGFERIKQKYAELKDRLGQSSMLGEQGARIQSVKTEAEELFGETMEMMDRMKDMELELLRGSQAIMLRSADLTGLEKRVEQIRDHINGRVLYYATCK
B7: TCF25 (protein, UniProt Q9BQ70 1-676, looked up)
Ribosome quality control …: MSRRALRRLRGEQRGQEPLGPGALHFDLRDDDDAEEEGPKRELGVRRPGGAGKEGVRVNNRFELINIDDLEDDPVVNGERSGCALTDAVAPGNKGRGQRGNTESKTDGDDTETVPSEQSHASGKLRKKKKKQKNKKSSTGEASENGLEDIDRILERIEDSTGLNRPGPAPLSSRKHVLYVEHRHLNPDTELKRYFGARAILGEQRPRQRQRVYPKCTWLTTPKSTWPRYSKPGLSMRLLESKKGLSFFAFEHSEEYQQAQHKFLVAVESMEPNNIVVLLQTSPYHVDSLLQLSDACRFQEDQEMARDLVERALYSMECAFHPLFSLTSGACRLDYRRPENRSFYLALYKQMSFLEKRGCPRTALEYCKLILSLEPDEDPLCMLLLIDHLALRARNYEYLIRLFQEWEAHRNLSQLPNFAFSVPLAYFLLSQQTDLPECEQSSARQKASLLIQQALTMFPGVLLPLLESCSVRPDASVSSHRFFGPNAEISQPPALSQLVNLYLGRSHFLWKEPATMSWLEENVHEVLQAVDAGDPAVEACENRRKVLYQRAPRNIHRHVILSEIKEAVAALPPDVTTQSVMGFDPLPPSDTIYSYVRPERLSPISHGNTIALFFRSLLPNYTMEGERPEEGVAGGLNRNQGLNRLMLAVRDMMANFHLNDLEAPHEDDAEGEGEWD

tested on: GFP-14-3-3β and its binding proteins; assay: GFP-14-3-3β co-IP with LC-MS/MS label-free quantification, untreated versus PP1c-treated; parameters: species or system human; conditions: GFP-14-3-3β co-IP LC-MS/MS; PP1 vs untreated; student's t-test; label-free quantification, 3 replicates each

Row | Molecule | Difference (log2), PP1 vs untreated [log2]
1 | B1 | -0.4623
2 | B2 | -0.3751
3 | B3 | -0.3533
4 | B4 | -0.3964
5 | B5 | -0.3668
6 | B6 | -0.3598

same assay, conditions: log2 difference; pairwise comparison PP1 vs untreated, label-free quantification, 3 replicates each

Row | Molecule | Difference (log2), PP1 vs untreated
7 | B7 | 1.673

tested on: GFP-14-3-3β; assay: GFP-14-3-3β co-IP with LC-MS/MS, untreated GFP-14-3-3β versus GFP control (14-3-3 interactome); type: binding, human; conditions: GFP-14-3-3β co-IP LC-MS/MS; untreated vs GFP; student's t-test; label-free quantification, 3 replicates each

Row | Molecule | Difference (log2), untreated vs GFP [log2]
8 | B1 | -0.3549
9 | B2 | -0.2834
10 | B3 | 0.6496
11 | B4 | 0.7737
12 | B5 | 0.3721
13 | B6 | 0.9719

same assay, conditions: log2 difference; pairwise comparison untreated vs GFP, label-free quantification, 3 replicates each

Row | Molecule | Difference (log2), untreated vs GFP
14 | B7 | -0.2721
